Results on 1 substance are retold here after patent US20240218074A1.

For orientation: EC50 means the midpoint of the concentration-response curve. High values mean lower potency in that assay, low ones higher potency in that assay.

Test [1] concerns the target human CD73 expressed on cells (human PBMC CD8+ T cells and CD19+ B cells; endogenous CD73 of MDA-MB-231 and U87-MG cells) (human) (UniProt P21589). As to the kind of experiment: cell-based or functional assay.
The target of test [2] is human NT5E-Biotin (NT5E is GenbankID: NP_002517.1, position: 1-552) (human) (UniProt P21589). As to the kind of experiment: ELISA on streptavidin-captured human NT5E-Biotin; HRP goat anti-human IgG. In general terms: ELISA stands for enzyme-linked immunosorbent assay.
Test [3] shares this target. Description: ELISA on streptavidin-captured human NT5E-Biotin; antibody 0.333 ug/mL; replicate 1.
Test [4] shares this target. As to the kind of experiment: ELISA on streptavidin-captured human NT5E-Biotin; antibody 0.333 ug/mL; replicate 2.
Test [5] has the same target. Description: ELISA on streptavidin-captured human NT5E-Biotin; antibody 0 (blank well); replicate 1.
For test [6] the target is unchanged. Description: ELISA on streptavidin-captured human NT5E-Biotin; antibody 0 (blank well); replicate 2.
For test [7] the target is unchanged. As to the kind of experiment: ELISA on streptavidin-captured human NT5E-Biotin; antibody 1:3 dilution of 0.333 ug/mL; replicate 1.
The target is the same in test [8]. As to the kind of experiment: ELISA on streptavidin-captured human NT5E-Biotin; antibody 1:3 dilution of 0.333 ug/mL; replicate 2.
Test [9] shares this target. Description: ELISA on streptavidin-captured human NT5E-Biotin; antibody 1:9 dilution of 0.333 ug/mL; replicate 1.
For test [10] the target is unchanged. Description: ELISA on streptavidin-captured human NT5E-Biotin; antibody 1:9 dilution of 0.333 ug/mL; replicate 2.
For test [11] the target is unchanged. As to the kind of experiment: ELISA on streptavidin-captured human NT5E-Biotin; antibody 1:27 dilution of 0.333 ug/mL; replicate 1.
For test [12] the target is unchanged. As to the kind of experiment: ELISA on streptavidin-captured human NT5E-Biotin; antibody 1:27 dilution of 0.333 ug/mL; replicate 2.
For test [13] the target is unchanged. As to the kind of experiment: ELISA on streptavidin-captured human NT5E-Biotin; antibody 1:81 dilution of 0.333 ug/mL; replicate 1.
The target is the same in test [14]. As to the kind of experiment: ELISA on streptavidin-captured human NT5E-Biotin; antibody 1:81 dilution of 0.333 ug/mL; replicate 2.
The target is the same in test [15]. As to the kind of experiment: ELISA on streptavidin-captured human NT5E-Biotin; antibody 1:243 dilution of 0.333 ug/mL; replicate 1.
Test [16] has the same target. Description: ELISA on streptavidin-captured human NT5E-Biotin; antibody 1:243 dilution of 0.333 ug/mL; replicate 2.
The target is the same in test [17]. As to the kind of experiment: ELISA on streptavidin-captured human NT5E-Biotin; antibody 1:729 dilution of 0.333 ug/mL; replicate 1.
Test [18] has the same target. Description: ELISA on streptavidin-captured human NT5E-Biotin; antibody 1:729 dilution of 0.333 ug/mL; replicate 2.

Chain of human CD73 expressed on cells (human PBMC CD8+ T cells and CD19+ B cells; endogenous CD73 of MDA-MB-231 and U87-MG cells) (human) (P21589 27-549): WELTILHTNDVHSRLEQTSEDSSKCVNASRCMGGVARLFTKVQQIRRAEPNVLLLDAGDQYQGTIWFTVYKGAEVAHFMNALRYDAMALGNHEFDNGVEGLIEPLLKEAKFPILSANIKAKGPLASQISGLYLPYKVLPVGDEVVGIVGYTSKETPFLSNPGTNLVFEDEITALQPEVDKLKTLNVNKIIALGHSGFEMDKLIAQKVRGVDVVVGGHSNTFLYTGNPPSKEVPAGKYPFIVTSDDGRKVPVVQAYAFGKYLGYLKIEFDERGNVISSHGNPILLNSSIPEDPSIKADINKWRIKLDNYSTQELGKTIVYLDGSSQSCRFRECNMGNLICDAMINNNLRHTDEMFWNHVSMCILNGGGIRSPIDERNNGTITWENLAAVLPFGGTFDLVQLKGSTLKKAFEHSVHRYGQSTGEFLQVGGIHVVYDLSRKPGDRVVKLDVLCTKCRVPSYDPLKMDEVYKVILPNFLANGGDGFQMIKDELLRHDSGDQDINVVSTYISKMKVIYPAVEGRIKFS
Chain of human NT5E-Biotin (NT5E is GenbankID: NP_002517.1, position: 1-552) (human) (P21589 27-552 limits assumed, form in doubt): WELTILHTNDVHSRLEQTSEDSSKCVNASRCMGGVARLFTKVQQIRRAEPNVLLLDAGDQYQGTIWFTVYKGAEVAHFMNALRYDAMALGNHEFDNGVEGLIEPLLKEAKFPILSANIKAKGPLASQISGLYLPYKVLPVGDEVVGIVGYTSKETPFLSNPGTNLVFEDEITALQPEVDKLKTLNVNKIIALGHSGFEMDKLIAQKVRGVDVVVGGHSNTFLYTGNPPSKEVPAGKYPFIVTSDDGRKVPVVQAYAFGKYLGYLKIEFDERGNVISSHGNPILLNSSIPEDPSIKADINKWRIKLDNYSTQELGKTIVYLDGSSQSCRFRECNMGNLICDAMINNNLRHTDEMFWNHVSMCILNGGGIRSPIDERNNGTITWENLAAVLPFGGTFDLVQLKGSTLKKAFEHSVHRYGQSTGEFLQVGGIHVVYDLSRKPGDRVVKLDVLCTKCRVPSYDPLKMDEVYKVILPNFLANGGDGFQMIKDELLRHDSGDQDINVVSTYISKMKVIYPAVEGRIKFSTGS

On to “positive control antibody MEDI9447 (Oleclumab)”, for which the Inhibition rate EC50 (nM): enzyme activity of CD73 expressed by human PBMC membrane (AMP/ATP CellTiter-Glo read-out) in [1] came to 0.0064 nM. The internalization rate of CD73 in MDA-MB-231 cells after 22 hours (FACS) in [1] amounted to 50.5%. The same substance registered an internalization rate of CD73 in U87-MG cells after 22 hours (FACS) in [1] of 73.7%. The substance further returned an EC50 in test [2] of 0.048 nM. The OD (450 nm) in test [3] came out at 2.55 OD450; in test [4] it was 2.53 OD450; in [5] it was 0.121 OD450; in [6], 0.116 OD450; in test [7], 2.57 OD450; in test [8], 2.6 OD450. The OD (450 nm) in test [9] came out at 2.27 OD450; in test [10], 2.28 OD450; in test [11], 1.77 OD450; in test [12], 1.74 OD450; in test [13], 1.06 OD450; in test [14], 1.03 OD450. The OD (450 nm) in test [15] stood at 0.536 OD450; in test [16], 0.528 OD450; in test [17], 0.272 OD450; in test [18], 0.275 OD450.
